Laboratory results from patent publication US20160194653A1.

molecular target: GAL4 activation domain-HAB1 fusion protein (UniProt Q9CAJ0); test: cell-based or functional assay
Sequence of UniProt Q9CAJ0 (Q9CAJ0 23-511 limits assumed): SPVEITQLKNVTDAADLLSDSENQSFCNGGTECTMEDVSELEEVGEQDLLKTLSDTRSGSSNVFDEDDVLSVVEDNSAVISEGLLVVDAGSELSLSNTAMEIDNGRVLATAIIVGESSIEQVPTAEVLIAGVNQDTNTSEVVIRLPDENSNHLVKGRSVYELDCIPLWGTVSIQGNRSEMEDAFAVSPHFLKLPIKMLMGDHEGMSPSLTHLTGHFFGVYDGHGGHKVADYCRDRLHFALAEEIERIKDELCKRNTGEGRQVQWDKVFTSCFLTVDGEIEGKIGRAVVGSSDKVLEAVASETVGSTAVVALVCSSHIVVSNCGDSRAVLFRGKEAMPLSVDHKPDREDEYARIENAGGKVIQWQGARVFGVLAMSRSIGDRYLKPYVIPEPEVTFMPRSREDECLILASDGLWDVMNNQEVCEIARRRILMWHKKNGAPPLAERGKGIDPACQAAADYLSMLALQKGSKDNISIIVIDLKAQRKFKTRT

Substance | Minimal conc. For ABA response [µM] | uracil-independent growth (URA3 reporter, yeast two-hybrid) on medium with ABA [nM]
PYR1 mutant A160C (from UniProt P04386 1-147) (receptor) | 0.25 | 
PYR1 mutant A160I (from UniProt P04386 1-147) (receptor) | 0.25 | 
PYR1 mutant E141C (from UniProt P04386 1-147) (receptor) | 0.5 | 
PYR1 mutant E141I (from UniProt P04386 1-147) (receptor) | 0.25 | 
PYR1 mutant E141M (from UniProt P04386 1-147) (receptor) | 0.25 | 
PYR1 mutant E141N (from UniProt P04386 1-147) (receptor) | 0.5 | 
PYR1 mutant E141T (from UniProt P04386 1-147) (receptor) | 0.5 | 
PYR1 mutant E141Y (from UniProt P04386 1-147) (receptor) | 0.25 | 
PYR1 mutant I110C (from UniProt P04386 1-147) (receptor) | 0.25 | 
PYR1 mutant V81I (from UniProt P04386 1-147) (receptor) | 0.25 | 
PYR1 mutant V81Y (from UniProt P04386 1-147) (receptor) | 0.25 | 
PYR1F61L, A160C (from UniProt P04386 1-147) (receptor) |  | 50
PYR1F61M, A160V (from UniProt P04386 1-147) (receptor) |  | 50
PYR1F61M, I110S, A160V (from UniProt P04386 1-147) (receptor) |  | 50

More lines, now with the values ahead:

Minimal conc. For ABA response [µM] | uracil-independent growth (URA3 reporter, yeast two-hybrid) on medium with ABA [nM] | Substance
0.25 |  | PYR1 mutant A160V (from UniProt P04386 1-147) (receptor)
0.25 |  | PYR1 mutant E141L (from UniProt P04386 1-147) (receptor)
0.5 |  | PYR1 mutant E141V (from UniProt P04386 1-147) (receptor)
0.5 |  | PYR1 mutant E141W (from UniProt P04386 1-147) (receptor)
0.25 |  | PYR1 mutant F61L (from UniProt P04386 1-147) (receptor)
0.25 |  | PYR1 mutant F61M (from UniProt P04386 1-147) (receptor)
0.5 |  | PYR1 mutant I110S (from UniProt P04386 1-147) (receptor)
 | 50 | PYR1F61L, V81I, I110C, A160V (from UniProt P04386 1-147) (receptor)
